# From US20260234254A1 (APTEVO RESEARCH AND DEVELOPMENT, published 2026)
# B1: OMT1 VHVL x TSC456 scFv-Fc-scFv TRI129 (bispecific antibody)
# chain: EVQLLESGGGLVQPGGSLRLSCAASGFTFSSYGMSWVRQAPGKGLEGVSAISGSGGSTYYADSVKGRFTISRDNSKNTLYLQMNSLRAEDTAVYYCAKEKLRYFDWLSDAFDIWGQGTMVTVSSGGGGSGGGGSGGGGSGGGGSDIVMTQSPDSLAVSLGERATINCKSSHSVLYSSNNKNYLAWYQQKPGQPPKLLIYWASTRESGVPDRFSGSGSGTDFTLTISSLQAEDVAVYYCQQYYSTPPTTFGGGTKVEIKSSSEPKSSDKTHTCPPCPAPEAAGAPSVFLFPPKPKDTLMISRTPEVTCVVVDVSHEDPEVKFNWYVDGVEVHNAKTKPREEQYNSTYRVVSVLTVLHQDWLNGKEYKCAVSNKALPAPIEKTISKAKGQPREPQVYTLPPSRDELTKNQVSLTCLVKGFYPSDIAVEWESNGQPENNYKTTPPVLDSDGSFFLYSKLTVDKSRWQQGNVFSCSVMHEALHNHYTQKSLSLSPGSGGGGSGGGGSGGGGSPSQVQLVQSGPEVKKPGSSVKVSCKASGYTFSRSTMHWVRQAPGQGLEWIGYINPSSAYTNYNQKFKDRVTITADKSTSTAYMELSSLRSEDTAVYYCARPQVHYDYNGFPYWGQGTLVTVSSGGGGSGGGGSGGGGSGGGGSDIQMTQSPSTLSASVGDRVTMTCSASSSVSYMNWYQQKPGKAPKRWIYDSSKLASGVPSRFSGSGSGTDYTLTISSLQPDDFATYYCQQWSRNPPTFGGGTKVEIKRS
# notes: Single-chain scFv-Fc-scFv, anti-CD123 (OMT1, VH-VL) x anti-CD3ε (TSC456)
# Target: T1, recombinant monomeric CD123 ectodomain (ECD) with an affinity tag on the C-terminus (UniProt P26951 19-305)
# T1 construct: extracellular domain; also called CD123 ECD; extracellular domain of CD123
# T1 sequence (looked up): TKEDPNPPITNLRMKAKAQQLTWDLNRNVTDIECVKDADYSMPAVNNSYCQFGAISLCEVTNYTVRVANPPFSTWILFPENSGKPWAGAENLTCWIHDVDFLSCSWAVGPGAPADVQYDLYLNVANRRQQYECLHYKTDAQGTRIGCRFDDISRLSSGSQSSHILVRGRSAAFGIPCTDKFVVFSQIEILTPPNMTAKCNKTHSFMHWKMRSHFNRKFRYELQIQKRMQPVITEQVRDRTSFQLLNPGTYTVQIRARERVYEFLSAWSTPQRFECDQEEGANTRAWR
# Test: SPR (Biacore T200), bispecific captured by anti-human Fc F(ab')2, CD123 ECD 3-48 nM as analyte, 25 °C, 1:1 model
# Description: SPR binding studies of bispecific molecules to recombinant monomeric CD123 ectodomain (ECD) were conducted at 25° C. in HBS-EP+ buffer. […] The bispecific molecules at 200 nM in HBS-EP+ buffer were captured by the immobilized anti-Fc F(ab′)2 fragment at a flow rate of 30 μL/min for 120 sec to reach a stable 2000 RU response. […] Optimal regeneration was achieved by one injection of 10 mM glycine (pH 1.7) at a flow rate of 30 μL/min for 15 sec followed by one injection of 50 mM NaOH at 30 μL/min for 15 sec. A two minute stabilization with HBS-EP+ buffer was completed before the subsequent run.
# Sensorgrams obtained from kinetic SPR measurements were analyzed by the double subtraction method. The signal from the reference flow cell was subtracted from the analyte binding response obtained from flow cells with immobilized or captured ligands. Buffer reference responses were then averaged from multiple injections. […] All sensorgrams were fitted using a simple one-to-one binding model.
binder,measurement,value
B1,Kd,11.4 nM
same,koff,0.00205 s⁻¹
same,kon,179000 M⁻¹ s⁻¹
